Assay results taken from patent US20230129812A1 (ACCELERON PHARMA, published 2023).

T1: activin A (UniProt P08476 311-426)
T1 construct: also called ActA
T1 sequence (looked up): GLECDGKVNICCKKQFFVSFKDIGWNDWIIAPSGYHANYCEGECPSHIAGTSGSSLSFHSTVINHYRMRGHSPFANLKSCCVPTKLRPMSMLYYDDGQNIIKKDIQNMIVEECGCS

T2: GDF11 (UniProt O95390 299-407)
T2 construct: also called BMP11
T2 sequence (looked up): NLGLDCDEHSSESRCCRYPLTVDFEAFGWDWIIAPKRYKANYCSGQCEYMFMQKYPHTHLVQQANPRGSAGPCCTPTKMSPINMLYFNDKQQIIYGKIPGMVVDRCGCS

T3: GDF8 (UniProt O14793 267-375)
T3 construct: also called myostatin
T3 sequence (looked up): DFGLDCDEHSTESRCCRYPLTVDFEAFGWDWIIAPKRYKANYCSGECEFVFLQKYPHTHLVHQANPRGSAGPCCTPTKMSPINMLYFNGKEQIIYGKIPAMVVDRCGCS


Tests used:
[1] = target: T1, activin A; test: SPR (Biacore); ligand coupled, receptor flowed over (as reported in WO2006/012627)
Description: (§1) Other variants have been generated and tested, as reported in WO2006/012627 (incorporated herein by reference in its entirety). See, e.g., pp. 59-60, using ligands coupled to the device and flowing receptor over the coupled ligands. […] Table 11 showing data with respect to these variants is reproduced below: […]

[2] = target: T2, GDF11; test: as above
Description: as §1

[3] = target: T3, GDF8; test: SPR (Biacore); receptor-Fc captured by anti-hFc antibody, ligand injected
Protocol: (§2) Binding of certain ActRIIB-Fc proteins and ActRIIB variant Fc fusion polypeptides to ligands was tested in a Biacore™ assay.
(§3) The ActRIIB-Fc variants or wild-type protein were captured onto the system using an anti-hFc antibody. Ligands were injected and flowed over the captured receptor proteins.

[4] = target: T1, activin A; test: as above
Protocol: as §2, §3

Binder | binding result [1] | binding result [2] | other results
Soluble ActRIIB-Fc +15tail (Fc fusion, UniProt Q13705 19-134, looked up, not shown: linker and Fc) SGRGEAETRECIYYNANWELERTNQSGLERCEGEQDKRLHCYASWANSSGTIELVKKGCWLDDFNCYDRQECVATEENPQVYFCCCEGNFCNERFTHLPEAGGPEVTYEPPPTAPT |  |  | Kd [1]: ~26 nM
Soluble ActRIIB-Fc WT (64A) (Fc fusion, UniProt Q13705 19-119, looked up, not shown: a dimerising Fc or GST, Whole entry named) SGRGEAETRECIYYNANWELERTNQSGLERCEGEQDKRLHCYASWANSSGTIELVKKGCWLDDFNCYDRQECVATEENPQVYFCCCEGNFCNERFTHLPEA |  |  | Kd [1]: 180 nM; Kd [2]: 260 nM
Soluble ActRIIB-Fc WT (64R) (Fc fusion, UniProt Q13705 19-119, looked up, not shown: a dimerising Fc or GST, Whole entry named) SGRGEAETRECIYYNANWELERTNQSGLERCEGEQDKRLHCYASWRNSSGTIELVKKGCWLDDFNCYDRQECVATEENPQVYFCCCEGNFCNERFTHLPEA |  |  | Kd [2]: 86 nM
Soluble ActRIIB-Fc K55A (Table 11) (Fc fusion, UniProt Q13705 19-119, looked up, not shown: a dimerising Fc or GST) SGRGEAETRECIYYNANWELERTNQSGLERCEGEQDARLHCYASWANSSGTIELVKKGCWLDDFNCYDRQECVATEENPQVYFCCCEGNFCNERFTHLPEA |  | no binding | 
Soluble ActRIIB-Fc K74A (Table 11) (Fc fusion, UniProt Q13705 19-119, looked up, not shown: a dimerising Fc or GST) SGRGEAETRECIYYNANWELERTNQSGLERCEGEQDKRLHCYASWANSSGTIELVAKGCWLDDFNCYDRQECVATEENPQVYFCCCEGNFCNERFTHLPEA |  |  | Kd [1]: 4.35 nM; Kd [2]: 5.3 nM
Soluble ActRIIB-Fc D80G (Table 11) (Fc fusion, UniProt Q13705 19-119, looked up, not shown: a dimerising Fc or GST) SGRGEAETRECIYYNANWELERTNQSGLERCEGEQDKRLHCYASWANSSGTIELVKKGCWLGDFNCYDRQECVATEENPQVYFCCCEGNFCNERFTHLPEA | no binding | no binding | 
Soluble ActRIIB-Fc D80M (Table 11) (Fc fusion, UniProt Q13705 19-119, looked up, not shown: a dimerising Fc or GST) SGRGEAETRECIYYNANWELERTNQSGLERCEGEQDKRLHCYASWANSSGTIELVKKGCWLMDFNCYDRQECVATEENPQVYFCCCEGNFCNERFTHLPEA | no binding | no binding | 
Soluble ActRIIB-Fc D80N (Table 11) (Fc fusion, UniProt Q13705 19-119, looked up, not shown: a dimerising Fc or GST) SGRGEAETRECIYYNANWELERTNQSGLERCEGEQDKRLHCYASWANSSGTIELVKKGCWLNDFNCYDRQECVATEENPQVYFCCCEGNFCNERFTHLPEA | no binding | no binding | 
Soluble ActRIIB-Fc E37A (Table 11) (Fc fusion, UniProt Q13705 19-119, looked up, not shown: a dimerising Fc or GST) SGRGEAETRECIYYNANWALERTNQSGLERCEGEQDKRLHCYASWANSSGTIELVKKGCWLDDFNCYDRQECVATEENPQVYFCCCEGNFCNERFTHLPEA | no binding | no binding | 
Soluble ActRIIB-Fc D80K (Table 11) (Fc fusion, UniProt Q13705 19-119, looked up, not shown: a dimerising Fc or GST) SGRGEAETRECIYYNANWELERTNQSGLERCEGEQDKRLHCYASWANSSGTIELVKKGCWLKDFNCYDRQECVATEENPQVYFCCCEGNFCNERFTHLPEA | no binding | no binding | 
Soluble ActRIIB-Fc D80A (Table 11) (Fc fusion, UniProt Q13705 19-119, looked up, not shown: a dimerising Fc or GST) SGRGEAETRECIYYNANWELERTNQSGLERCEGEQDKRLHCYASWANSSGTIELVKKGCWLADFNCYDRQECVATEENPQVYFCCCEGNFCNERFTHLPEA | no binding | no binding | 
ActRIIB(K74A 20-134)-hFc (Fc fusion) GRGEAETRECIYYNANWELERTNQSGLERCEGEQDKRLHCYASWRNSSGTIELVAKGCWLDDFNCYDRQECVATEENPQVYFCCCEGNFCNERFTHLPEAGGPEVTYEPPPTAPTGGGTHTCPPCPAPELLGGPSVFLFPPKPKDTLMISRTPEVTCVVVDVSHEDPEVKFNWYVDGVEVHNAKTKPREEQYNSTYRVVSVLTVLHQDWLNGKEYKCKVSNKALPVPIEKTISKAKGQPREPQVYTLPPSREEMTKNQVSLTCLVKGFYPSDIAVEWESNGQPENNYKTTPPVLDSDGSFFLYSKLTVDKSRWQQGNVFSCSVMHEALHNHYTQKSLSLSPGK |  |  | Kd [3]: 0.0718 nM; koff [3]: 2.03e-05 s⁻¹
ActRIIB(P129S, P130R 20-134)-hFc (Fc fusion) GRGEAETRECIYYNANWELERTNQSGLERCEGEQDKRLHCYASWRNSSGTIELVKKGCWLDDFNCYDRQECVATEENPQVYFCCCEGNFCNERFTHLPEAGGPEVTYEPSRTAPTGGGTHTCPPCPAPELLGGPSVFLFPPKPKDTLMISRTPEVTCVVVDVSHEDPEVKFNWYVDGVEVHNAKTKPREEQYNSTYRVVSVLTVLHQDWLNGKEYKCKVSNKALPVPIEKTISKAKGQPREPQVYTLPPSREEMTKNQVSLTCLVKGFYPSDIAVEWESNGQPENNYKTTPPVLDSDGSFFLYSKLTVDKSRWQQGNVFSCSVMHEALHNHYTQKSLSLSPGK |  |  | Kd [3]: 1.67 nM; koff [3]: 0.00018 s⁻¹; Kd [4]: 0.0831 nM; koff [4]: 0.000417 s⁻¹; kon [4]: 5.02e+06 M⁻¹ s⁻¹
ActRIIB(R64K 20-129)-hFc (Fc fusion) GRGEAETRECIYYNANWELERTNQSGLERCEGEQDKRLHCYASWKNSSGTIELVKKGCWLDDFNCYDRQECVATEENPQVYFCCCEGNFCNERFTHLPEAGGPEVTYEPPGGGTHTCPPCPAPELLGGPSVFLFPPKPKDTLMISRTPEVTCVVVDVSHEDPEVKFNWYVDGVEVHNAKTKPREEQYNSTYRVVSVLTVLHQDWLNGKEYKCKVSNKALPVPIEKTISKAKGQPREPQVYTLPPSREEMTKNQVSLTCLVKGFYPSDIAVEWESNGQPENNYKTTPPVLDSDGSFFLYSKLTVDKSRWQQGNVFSCSVMHEALHNHYTQKSLSLSPGK |  |  | Kd [3]: 2.15 nM; koff [3]: 0.000209 s⁻¹; Kd [4]: 0.0841 nM; koff [4]: 0.000628 s⁻¹; kon [4]: 7.46e+06 M⁻¹ s⁻¹

The next lines start with results.

binding result [1] | binding result [2] | Binder | other results
no binding | no binding | Soluble ActRIIB-Fc D80R (Table 11) (Fc fusion, UniProt Q13705 19-119, looked up, not shown: a dimerising Fc or GST) SGRGEAETRECIYYNANWELERTNQSGLERCEGEQDKRLHCYASWANSSGTIELVKKGCWLRDFNCYDRQECVATEENPQVYFCCCEGNFCNERFTHLPEA | 
no binding | no binding | Soluble ActRIIB-Fc W78A (Table 11) (Fc fusion, UniProt Q13705 19-119, looked up, not shown: a dimerising Fc or GST) SGRGEAETRECIYYNANWELERTNQSGLERCEGEQDKRLHCYASWANSSGTIELVKKGCALDDFNCYDRQECVATEENPQVYFCCCEGNFCNERFTHLPEA | 
no binding | no binding | Soluble ActRIIB-Fc D80F (Table 11) (Fc fusion, UniProt Q13705 19-119, looked up, not shown: a dimerising Fc or GST) SGRGEAETRECIYYNANWELERTNQSGLERCEGEQDKRLHCYASWANSSGTIELVKKGCWLFDFNCYDRQECVATEENPQVYFCCCEGNFCNERFTHLPEA | 
no binding | no binding | Soluble ActRIIB-Fc R56A (Table 11) (Fc fusion, UniProt Q13705 19-119, looked up, not shown: a dimerising Fc or GST) SGRGEAETRECIYYNANWELERTNQSGLERCEGEQDKALHCYASWANSSGTIELVKKGCWLDDFNCYDRQECVATEENPQVYFCCCEGNFCNERFTHLPEA | 
